Reference: paper PMC10611974

Biological target: APOBEC3B (A3B) C-terminal domain (ctd)-Cas9n-Ugi (human | S. pyogenes | not stated)

B1: Epstein-Barr virus ribonucleotide reductase large subunit, BORF2 (natural protein)
chain: MATTSHVEHELLSKLIDELKVKANSDPEADVLAGRLLHRLKAESVTHTVAEYLEVFSDKFYDEEFFQMHRDELETRVSAFAQSPAYERIVSSGYLSALRYYDTYLYVGRSGKQESVQHFYMRLAGFCASTTCLYAGLRAALQRARPEIESDMEVFDYYFEHLTSQTVCCSTPFMRFAGVENSTLASCILTTPDLSSEWDVTQALYRHLGRYLFQRAGVGVGVTGAGQDGKHISLLMRMINSHVEYHNYGCKRPVSVAAYMEPWHSQIFKFLETKLPENHERCPGIFTGLFVPELFFKLFRDTPWSDWYLFDPKDAGDLERLYGEEFEREYYRLVTAGKFCGRVSIKSLMFSIVNCAVKAGSPFILLKEACNAHFWRDLQGEAMNAANLCAEVLQPSRKSVATCNLANICLPRCLVNAPLAVRAQRADTQGDELLLALPRLSVTLPGEGAVGDGFSLARLRDATQCATFVVACSILQGSPTYDSRDMASMGLGVQGLADVFADLGWQYTDPPSRSLNKEIFEHMYFTALCTSSLIGLHTRKIFPGFKQSKYAGGWFHWHDWAGTDLSIPREIWSRLSERIVRDGLFNSQFIALMPTSGCAQVTGCSDAFYPFYANASTKVTNKEEALRPNRSFWRHVRLDDREALNLVGGRVSCLPEALRQRYLRFQTAFDYNQEDLIQMSRDRAPFVDQSQSHSLFLREEDAARASTLANLLVRSYELGLKTIMYYCRIEKAADLGVMECKASAALSVPREEQNERSPAEQMPPRPMEPAQVAGPVDIMSKGPGEGPGGWCVPGGLEVCYKYRQLFSEDDLLETDGFTERACESCQ
B1 showed an inhibition of A3Bctd CBE editing of the chromosomally integrated TC reporter (eGFP) in 293T cells, flow cytometry, 72 h post-transfection of 4.9 fold.
